Reference: US20210347867A1

Tests used:
amyloid peptide AβpE3-42 = amyloid peptide AβpE3-42 (UniProt P05067); assay: ELISA, plate coated with AβpE3-42, antibody titrated, signal as % Max
amyloid peptide Aβ1-42 = amyloid peptide Aβ1-42 (UniProt P05067); assay: ELISA, plate coated with Aβ1-42 (target by legend paragraph 23), antibody titrated, signal as % Max
amyloid peptide Aβ1-42, sequence (P05067 672-713 limits assumed): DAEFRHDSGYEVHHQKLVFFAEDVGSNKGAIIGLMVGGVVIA

amyloid peptide AβpE3-42, sequence (P05067 674-713 limits assumed): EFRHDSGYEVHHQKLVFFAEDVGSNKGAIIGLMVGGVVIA

Solineuzumab (antibody)
EC50 (amyloid peptide AβpE3-42): 0.15 µg/mL
EC50 (amyloid peptide Aβ1-42): 0.22 µg/mL
